What was measured:
[1] = biological target: ACKR3 wild type, expressed in cells for the NanoBiT β-arrestin recruitment assay (UniProt P25106)
[2] = biological target: ACKR3 wild type, Tango assay construct (UniProt P25106)
[3] = biological target: ACKR3 wild type, expressed in cells for the NanoBiT β-arrestin recruitment assay (UniProt P25106 1-362); experiment: cell-based or functional assay
Sequence of ACKR3 wild type, expressed in cells for the NanoBiT β-arrestin recruitment assay (UniProt P25106 1-362) (P25106 whole entry): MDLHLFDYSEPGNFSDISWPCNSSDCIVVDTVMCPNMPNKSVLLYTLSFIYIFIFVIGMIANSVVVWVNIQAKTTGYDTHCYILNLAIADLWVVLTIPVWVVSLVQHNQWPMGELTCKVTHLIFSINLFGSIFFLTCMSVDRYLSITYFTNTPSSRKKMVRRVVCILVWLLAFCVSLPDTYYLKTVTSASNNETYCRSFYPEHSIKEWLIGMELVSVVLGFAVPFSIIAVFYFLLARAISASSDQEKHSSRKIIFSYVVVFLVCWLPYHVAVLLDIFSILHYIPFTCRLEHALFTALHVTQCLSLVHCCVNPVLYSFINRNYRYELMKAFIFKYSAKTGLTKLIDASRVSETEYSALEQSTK

Sequence of CXCL12 (P48061 22-93): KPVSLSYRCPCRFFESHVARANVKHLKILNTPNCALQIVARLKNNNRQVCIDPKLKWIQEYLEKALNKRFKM
Sequence of ACKR3 wild type, expressed in cells for the NanoBiT β-arrestin recruitment assay (UniProt P25106) (P25106 whole entry): as the sequence (P25106 whole entry) above
Sequence of ACKR3 wild type, Tango assay construct (P25106 whole entry): as above

β-arrestin-2 recruitment to ACKR3, NanoBiT, EC50 [1] [nM] | β-arrestin-2 recruitment to ACKR3, Tango assay, EC50 [2] [nM] | β-arrestin-2 recruitment to ACKR3, NanoBiT, EC50 [3] [nM] | Molecule
0.75 | 3.9 |  | CXCL12 (from UniProt P48061 22-93) (ligand)
 |  | 4.8 | FGGFMRRK [LIH383]
